Patent publication US20230263863A1, “COMPOSITIONS HAVING NEUROREGENERATIVE APPLICATIONS” (GRIFOLS WORLDWIDE OPERATIONS LIMITED, priority 2020, published 2023)

System: SH-SY5Y cells
Assay: Neurite outgrowth (Outgrowth Fold Change) in undifferentiated SH-SY5Y cells
Format: cell-based, human
Conditions: for neurogenesis / differentiation (neurite outgrowth): all proteins 0.2 mg/mL
Experimental: Undifferentiated SH-SY5Y cells were seeded into 96 well clear bottom plates in media containing 0.1% FBS. A serum-free base media was utilized as recommended by the supplier for SH-SY5Y cells (Sigma, Cat #94030304-1VL). Twenty-four hours after seeding cells, a 3× stock solution of ApoTf, final concentrations indicated on the x-axis, in serum free base media was added to the cells. ApoTf was obtained and purified from pooled human plasma and dosed at a final concentration of 0.2 mg/mL. Cells were allowed to differentiate for 6 days. Neurite growth was assessed by imaging and image analysis. At the time of analysis, a 10× solution of Tubulin Tracker (Molecular Probes, T34075) and Hoechst 33342 (Molecular Probes #H3570) nuclear stain was prepared.
Briefly, Tubulin Tracker dissolved in DMSO was diluted 1:1 with Pluronic F-127 and further diluted into HBSS to generate a 10× solution. Hoechst 33342 was added to the HBSS-Tubulin Tracker solution at 10 μg/mL to generate a 10× nuclear stain. The 10× staining solution (10 μL) was added directly to treated assay wells and incubated at 37° C. for 30 minutes. Following incubation, 110 μL of 0.4% Trypan Blue was added directly to assay wells and imaged on a Molecular Devices Nano imaging instrument. Nine images/well were acquired in the blue (Nuclei) and green (Tubulin) fluorescent channels for each image.
After obtaining images, the MetaExpress Neurite Outgrowth analysis module (Molecular Devices) was used to identify cells, cell bodies, and quantify neurites. The total number of neurite branches were divided by the total number of cells imaged to account for different numbers of cells in each test well. The Outgrowth Fold Change was determined by setting the untreated control cells to a value of 1 with all other treatments shown relative to untreated control.

B1: N-mut rec ApoTf: Y95F/Y188F transferrin N-lobe mutant protein, SEQ ID NO: 4, reduced iron-binding capacity (protein)
chain: VPDKTVRWCAVSEHEATKCQSFRDHMKSVIPSDGPSVACVKKASYLDCIRAIAANEADAVTLDAGLVYDAYLAPNNLKPVVAEFYGSKEDPQTFFYAVAVVKKDSGFQMNQLRGKKSCHTGLGRSAGWNIPIGLLYCDLPEPRKPLEKAVANFFSGSCAPCADGTDFPQLCQLCPGCGCSTLNQYFGFSGAFKCLKDGAGDVAFVKHSTIFENLANKADRDQYELLCLDNTRKPVDEYKDCHLAQVPSHTVVARSMGGKEDLIWELLNQAQEHFGKDKSKEFQLFSSPHGKDLLFKDSAHGFLKVPPRMDAKMYLGYEYVTAIRNLREGTCPEAPTDECKPVKWCALSHHERLKCDEWSVNSVGKIECVSAETTEDCIAKIMNGEADAMSLDGGFVYIAGKCGLVPVLAENYNKSDNCEDTPEAGYFAVAVVKKSASDLTWDNLKGKKSCHTAVGRTAGWNIPMGLLYNKINHCRFDEFFSEGCAPGSKKDSSLCKLCMGSGLNLCEPNNKEGYYGYTGAFRCLVEKGDVAFVKHQTVPQNTGGKNPDPWAKNLNEKDYELLCLDGTRKPVEEYANCHLARAPNHAVVTRKDKEACVHKILRQQQHLFGSNVTDCSGNFCLFRSETKDLLFRDDTVCLAKLHDRNTYEKYLGEEYVKAVGNLRKCSTSSLLEACTFRRP
modifications: Y95F/Y188F mutant
FIG. 3B
  neurogenesis / differentiation (neurite outgrowth): almost equal to that of ApoTf and rec ApoTf at inducing differentiation

B2: BDNF: brain-derived neurotrophic factor; NGF superfamily; SEQ ID NO: 6 (protein, listed as Homo sapiens)
chain: MFHQVRRVMTILFLTMVISYFGCMKAAPMKEANIRGQGGLAYPGVRTHGTLESVNGPKAGSRGLTSLADTFEHVIEELLDEDQKVRPNEENNKDADLYTSRVMLSSQVPLEPPLLFLLEEYKNYLDAANMSMRVRRHSDPARRGELSVCDSISEWVTAADKKTAVDMSGGTVTVLEKVPVSKGQLKQYFYETKCNPMGYTKEGCRGIDKRHWNSQCRTTQSYVRALTMDSKKRIGWRFIRIDTSCVCTLTIKRGR
FIGS. 7A-7D, absence of ApoTf, BDNF 25 ng/mL, GDNF 1000 ng/mL, CNTF 250 ng/mL, PACAP 200 nM
  differentiation (neurite outgrowth), factor alone: differentiation was not induced

B3: apo-lactoferrin: structural and functional homologue of apo-transferrin, from Athens Research & Technology (protein, UniProt P02788 20-710, looked up)
Lactotransferrin: GRRRSVQWCAVSQPEATKCFQWQRNMRKVRGPPVSCIKRDSPIQCIQAIAENRADAVTLDGGFIYEAGLAPYKLRPVAAEVYGTERQPRTHYYAVAVVKKGGSFQLNELQGLKSCHTGLRRTAGWNVPIGTLRPFLNWTGPPEPIEAAVARFFSASCVPGADKGQFPNLCRLCAGTGENKCAFSSQEPYFSYSGAFKCLRDGAGDVAFIRESTVFEDLSDEAERDEYELLCPDNTRKPVDKFKDCHLARVPSHAVVARSVNGKEDAIWNLLRQAQEKFGKDKSPKFQLFGSPSGQKDLLFKDSAIGFSRVPPRIDSGLYLGSGYFTAIQNLRKSEEEVAARRARVVWCAVGEQELRKCNQWSGLSEGSVTCSSASTTEDCIALVLKGEADAMSLDGGYVYTAGKCGLVPVLAENYKSQQSSDPDPNCVDRPVEGYLAVAVVRRSDTSLTWNSVKGKKSCHTAVDRTAGWNIPMGLLFNQTGSCKFDEYFSQSCAPGSDPRSNLCALCIGDEQGENKCVPNSNERYYGYTGAFRCLAENAGDVAFVKDVTVLQNTDGNNNEAWAKDLKLADFALLCLDGKRKPVTEARSCHLAMAPNHAVVSRMDKVERLKQVLLHQQAKFGRNGSDCPDKFCLFQSETKNLLFNDNTECLARLHGKTTYEKYLGPQYVAGITNLKKCSTSPLLEACEFLRK
modifications: apo form
notes: structural and functional homologue of apo-transferrin, from Athens Research & Technology
FIG. 4
  neurogenesis / differentiation (neurite outgrowth): induced differentiation
